In PMC7057950:

Columns and labels:
[1] = biological target: ligand binding domain of the glucocorticoid receptor, Atto488-labelled (GR-LBDm-Atto 488); assay: analytical ultracentrifugation; conditions: parent: est. 0.77; read off a plot
[2] = biological target: yHsp90 (Saccharomyces cerevisiae) (UniProt P02829); conditions: remark: other sources report otherwise

Substance	response (normalized dc/dt) [1]	Kd [2]
human Hsp90β, wild type (from UniProt P08238) K607A	0.58	–
human Hsp90β, wild type (from UniProt P08238) K607E	0.37	–
human Hsp90β, wild type (from UniProt P08238) K607I	0.71	–
human Hsp90β, wild type (from UniProt P08238) K607R	0.82	–
yHsp90, P02829	–	45 nM
